± gives the uncertainty stated by the source.
B1: Transcription factor SOX-11, residues 50 to 117; numbered along this chain, P35716 (parent)
chain: KRPMNAFMVWSKIERRKIMEQSPDMHNAEISKRLGKRWKMLKDSEKIPFIREAERLRLKHMADYPDYK

Variants of: B1
Assay: abundance fitness (aPCA) (normalised: wild type 0, dead -1); higher = more abundant; growth selection in yeast, the domain comes from the species named
Conditions: Homo sapiens

Variant | abundance fitness
M40V | -0.665 ± 0.069
M40Q | 0.361 ± 0.14
M40S | 0.023 ± 0.048
M40D | 0.111 ± 0.061
M40I | -0.605 ± 0.067
M40F | -0.404 ± 0.065
M40C | -0.191 ± 0.053
M40E | 0.354 ± 0.19
M40T | -0.05 ± 0.075
M40N | -0.022 ± 0.059
M40L | 0.011 ± 0.05
M40R | -0.372 ± 0.072
M40P | -0.711 ± 0.18
M40H | -0.119 ± 0.062
M40Y | -0.383 ± 0.058
W38G | -0.865 ± 0.11
W38I | -0.716 ± 0.079
W38K | -0.375 ± 0.22
W38E | -1.27 ± 0.46
W38N | -0.914 ± 0.11
W38D | -0.696 ± 0.09

Variant | abundance fitness
W38T | -1.05 ± 0.16
W38P | -1 ± 0.17
W38Y | -0.641 ± 0.074
W38H | -0.851 ± 0.12
W38L | -0.994 ± 0.12
W38A | -0.568 ± 0.09
W38R | -0.653 ± 0.12
W38C | -0.644 ± 0.081
W38Q | -0.068 ± 0.36
W38S | -0.59 ± 0.063
W38M | -0.717 ± 0.23
W38V | -0.766 ± 0.081
W38F | -0.801 ± 0.076
K42P | 0.021 ± 0.068
K42M | -0.161 ± 0.11
K42I | -0.526 ± 0.072
K42W | -0.706 ± 0.16
K42C | -0.424 ± 0.061
K42L | -0.315 ± 0.056
K42N | 0.051 ± 0.05
K42R | -0.278 ± 0.064

Variant | abundance fitness
K42D | -0.263 ± 0.063
K42G | -0.221 ± 0.063
K42A | -0.058 ± 0.071
K42Y | -0.525 ± 0.077
K42F | -0.673 ± 0.065
K42H | -0.235 ± 0.067
K42E | -0.387 ± 0.17
K42V | -0.431 ± 0.055
G35R | 0.142 ± 0.057
G35M | 0.17 ± 0.1
G35H | 0.266 ± 0.061
G35A | 0.152 ± 0.06
G35E | 0.519 ± 0.1
G35I | 0.173 ± 0.053
G35D | 0.25 ± 0.055
G35T | 0.262 ± 0.059
G35K | 0.484 ± 0.12
G35C | 0.129 ± 0.051
G35P | -0.234 ± 0.1
G35Y | 0.126 ± 0.058
G35L | 0.162 ± 0.055

Variant | abundance fitness
G35Q | 0.212 ± 0.15
G35V | 0.25 ± 0.048
G35W | -0.207 ± 0.11
G35S | 0.315 ± 0.043
L41N | -0.849 ± 0.11
L41D | -0.849 ± 0.12
L41H | -0.951 ± 0.13
L41Q | -0.721 ± 0.31
L41W | -0.867 ± 0.36
L41Y | -0.753 ± 0.08
L41R | -0.762 ± 0.097
L41P | -1.14 ± 0.21
L41G | -0.702 ± 0.078
L41C | -0.876 ± 0.098
L41A | -0.671 ± 0.099
L41V | -0.53 ± 0.068
L41S | -0.604 ± 0.061
L41I | -0.652 ± 0.078
L41F | -0.791 ± 0.076
L41E | -1.04 ± 0.35
L41K | -0.666 ± 0.23

Reference: the Human Domainome abundance scans (Beltran et al. 2025)
